These results are taken from IntAct's records for PubMed 24332715.

To fix the notation:
B1: Internalin C (Listeria monocytogenes serotype 1/2a), P71451 (parent)
chain: MLKKNNWLQNAVIAMLVLIVGLCINMGSGTKVQAESIQRPTPINQVFPDPGLANAVKQNLGKQSVTDLVSQKELSGVQNFNGDNSNIQSLAGMQFFTNLKELHLSHNQISDLSPLKDLTKLEELSVNRNRLKNLNGIPSACLSRLFLDNNELRDTDSLIHLKNLEILSIRNNKLKSIVMLGFLSKLEVLDLHGNEITNTGGLTRLKKVNWIDLTGQKCVNEPVKYQPELYITNTVKDPDGRWISPYYISNGGSYVDGCVLWELPVYTDEVSYKFSEYINVGETEAIFDGTVTQPIKN
B2: Dynamin-binding protein (Homo sapiens), Q6XZF7-1 (parent)
chain: MEAGSVVRAIFDFCPSVSEELPLFVGDIIEVLAVVDEFWLLGKKEDVTGQFPSSFVEIVTIPSLKEGERLFVCICEFTSQELDNLPLHRGDLVILDGIPTAGWLQGRSCWGARGFFPSSCVRELCLSSQSRQWHSQSALFQIPEYSMGQARALMGLSAQLDEELDFREGDVITIIGVPEPGWFEGELEGRRGIFPEGFVELLGPLRTVDESVSSGNQDDCIVNGEVDTPVGEEEIGPDEDEEEPGTYGVALYRFQALEPNELDFEVGDKIRILATLEDGWLEGSLKGRTGIFPYRFVKLCPDTRVEETMALPQEGSLARIPETSLDCLENTLGVEEQRHETSDHEAEEPDCIISEAPTSPLGHLTSEYDTDRNSYQDEDTAGGPPRSPGVEWEMPLATDSPTSDPTEVVNGISSQPQVPFHPNLQKSQYYSTVGGSHPHSEQYPDLLPLEARTRDYASLPPKRMYSQLKTLQKPVLPLYRGSSVSASRVVKPRQSSPQLHNLASYTKKHHTSSVYSISERLEMKPGPQAQGLVMEAATHSQGDGSTDLDSKLTQQLIEFEKSLAGPGTEPDKILRHFSIMDFNSEKDIVRGSSKLITEQELPERRKALRPPPPRPCTPVSTSPHLLVDQNLKPAPPLVVRPSRPAPLPPSAQQRTNAVSPKLLSRHRPTCETLEKEGPGHMGRSLDQTSPCPLVLVRIEEMERDLDMYSRAQEELNLMLEEKQDESSRAETLEDLKFCESNIESLNMELQQLREMTLLSSQSSSLVAPSGSVSAENPEQRMLEKRAKVIEELLQTERDYIRDLEMCIERIMVPMQQAQVPNIDFEGLFGNMQMVIKVSKQLLAALEISDAVGPVFLGHRDELEGTYKIYCQNHDEAIALLEIYEKDEKIQKHLQDSLADLKSLYNEWGCTNYINLGSFLIKPVQRVMRYPLLLMELLNSTPESHPDKVPLTNAVLAVKEINVNINEYKRRKDLVLKYRKGDEDSLMEKISKLNIHSIIKKSNRVSSHLKHLTGFAPQIKDEVFEETEKNFRMQERLIKSFIRDLSLYLQHIRESACVKVVAAVSMWDVCMERGHRDLEQFERVHRYISDQLFTNFKERTERLVISPLNQLLSMFTGPHKLVQKRFDKLLDFYNCTERAEKLKDKKTLEELQSARNNYEALNAQLLDELPKFHQYAQGLFTNCVHGYAEAHCDFVHQALEQLKPLLSLLKVAGREGNLIAIFHEEHSRVLQQLQVFTFFPESLPATKKPFERKTIDRQSARKPLLGLPSYMLQSEELRASLLARYPPEKLFQAERNFNAAQDLDVSLLEGDLVGVIKKKDPMGSQNRWLIDNGVTKGFVYSSFLKPYNPRRSHSDASVGSHSSTESEHGSSSPRFPRQNSGSTLTFNPSSMAVSFTSGSCQKQPQDASPPPKECDQGTLSASLNPSNSESSPSRCPSDPDSTSQPRSGDSADVARDVKQPTATPRSYRNFRHPEIVGYSVPGRNGQSQDLVKGCARTAQAPEDRSTEPDGSEAEGNQVYFAVYTFKARNPNELSVSANQKLKILEFKDVTGNTEWWLAEVNGKKGYVPSNYIRKTEYT

Variants of B1 are the subject of the first test. Particulars: with DNMBP.
As to F146A, the “effect of a mutation on the interaction” value is on record as “decreasing interaction strength”.

The variants in the next test derive from B2. As to conditions: with inlc_lismg inlC.
V1521R: the “effect of a mutation on the interaction” value is “decreasing interaction strength”.

With N1569R, the “effect of a mutation on the interaction” value is listed as “decreasing interaction strength”.
